Test results as given in the nanobody polyreactivity screen of Harvey et al. (2022).

Test: yeast display, Sf9 membrane polyspecificity reagent, FACS + sequencing; frameworks hold sequencing errors
Procedure, shortened: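 Synthetic nanobody libraries on Saccharomyces cerevisiae BJ5465 were galactose-induced for 36–48 hours, stained 1 hour at 4 °C with 10% biotinylated, detergent-solubilized Sf9 membrane reagent and enriched on streptavidin microbeads. FACS then separated cells into low and high (top ~1%) gates by anti-HA (expression) and streptavidin (reagent binding) fluorescence. Genes were colony-PCR amplified, MiSeq 2 × 250 sequenced and CDR-length filtered. A clone's polyreactivity label is that of its gate of origin.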

Row | Sequence | polyreactivity (PSR sort gate)
1 | QVHLVESGGGLLQAGGSLRLSCAASGYTFVNYAMGWYREAPRKEMELVAAISYRGGSTSYADSVKGRFTISRDNAKNTVYLQMKSLKPEDSAVYYCAVVGQNWQSLRYDYWGQGTQVTVSS | high polyreactivity
2 | QVQLVESGGGLVQAGGSLRLSCASSGSTIYYNAMGWYRQAPGKERELVAAISNAGSTYYADSVKGRFTISRDNAENTVYLQMNSLKPEDTAVYYCAKRFRGITYSYYYWGQGTQVTVSS | high polyreactivity
3 | QVQLVESGGGLVQARGSLSLSCAATGSTSYINAMGWSSQAPWKERELVAAIRSGGSTKYADSVKGRFTISRDNAKNTVYLQMNSVLPEDSSVYYCAARNVYKTSGFRWVWNYDYWGQGTQVTVSS | high polyreactivity
4 | QVQLVESGGGLVQAGGRLRLSCAASGITFRTYAMGWYREAPGKERELVDAITRRGGSTYYADSVKGRFTISRDNAKNTVYLQMNSLKPEDTAVYYCAVRHNGIQASVGYDYWGQGTQVTGSS | high polyreactivity
5 | QVQLVESGGGLVQAGGSLRLSCAASGFIFAGYAMGWYRQAPGKERELVAAISSGGGSTYYADSVKGRFTISRDNAKNTVYLQMNSLKPEDTAVYYCAARRLYPPGYYYWGQGTQVTVSS | high polyreactivity
6 | QVQLVESGGGLVQAGGSLRLSCAASGRTFLVYAMGWYRQAPGKERDLVAAITGSGTSTYYADSVKRRFTISRDNGKNTVYLQMNSLKAEDTAVYYCAAEVRLGTYGYDYDYWGQGTQVTVSS | high polyreactivity
7 | QVQLVETGGGLVQAGGSLRLSCAASGRIFGPYAMGWYRQAPGKERELVAAITWSGVSTYYADSVKGRFTISRDNAKNSVYLQMNSLKQEDTAVYYCAVDPRGHEGVRYNYWGQGTKVTVSS | low polyreactivity
8 | QVQIEESGGCLVQAGGSLRLSCAASGNTFFKYNMGWSRQAPRKERELVAAITWSGGSTSYADSVKGRFTISRDNAKNTVYLQMNSLKPEDTAVYYCAAAWSHSRWDTHDYWGQGTQVTVSS | low polyreactivity
9 | QVQLVESGGGLVQAGGSLRLSCAASGIIFVYYTLGWYRQAPGKERELVAAITSGGSTYYADSVKGRFTISRDNAKNTVYLQMNSLKPEDTAVYYCAARTYRQPYYILDYYWGQGTQVTVSS | high polyreactivity
10 | QVQLVESGGGLVQAGGSLRLSCAASGRTFGSYAMGWYRQAPGKERELVAAISSSGGRTYYADSVKGRFTISRDNAKTTVYLQMNSLKPEDTAVYSCNARWRFLYDYWGQGTQVTVSS | high polyreactivity
11 | QVQLVESGGGLVQAGGSLRLSCAASGFIFANYAMGWDRQAPGKERELVAAISTSGSSTYYADSVKGRFTISRDNAKNTVYLQMNSLKPKDTAVYYCRTSGKHRLYISSYRFEYWGQGTQVTVSS | high polyreactivity
12 | QVQLVESGGGLVQAGGSLRVSCAPSGIIFGGNVMGWYRQAPGKERELVAGITSTGGRTYYADSVKGRFTISRDNAKNTVYLQMNSLKPEDTAVYYCAAVSTLVRGNFNRIRYGYWGHGTQVTVSS | high polyreactivity
13 | QVQLVESGGGLVQAGGSLRLSCAASGITFVYYAMGWYRQAPGKERELVAAISVSGGSTYYADSVKGRFTISRDNAKNTVYLQMNSLKPEDTAVYYCAADGYSGIGVREGYWGQGTQVTVSS | high polyreactivity
14 | QVQLVESGGGLVQAGGSLRLSCAASGSIFVYNAMGWYSPAPGQERELVAAITYSGGRTYYADSVKGRFTISRDNAKNTVYVQMNSLKPEDTAVDFCAADLTSKSSPQGYRYDYWGQGTQVTVSS | low polyreactivity
15 | QVQLVESGGGLVQAGGSLRLSCAASGRTFPSYTMGWYRQAPGKERELVAAITWTGGSTYYADSVKGRFTISRDNAKNTVYLQMNSLKPEDTAVYYCADYDYWGLGTQVTVSS | low polyreactivity
16 | QVQLVESGGGLVQAGGSLRLSCAASGITFDANTMGWYRQAPGKERELVAVITDTGSTNYADSVKGRFTISRDNAKNTVYLQMNSLKPEDTAVYYCNADAEPSSGTSANNDYWGQGTQVTVSS | low polyreactivity
17 | QVQLVESGVGIVQAGGSLRVSCAASGRIFYYYAMGWYRHAPGKERELVAVINSGDSTNYADSVKGRFTISRDNAKNSVYFQMNSLKPEDTAVYYCAKGVISDLDYWADYDYWGQGTQVSVSS | low polyreactivity
18 | QVQLVESGGGLVQAGGSLRLSCAASGFTYYYYAMGWYRQAHGKERELVAAISTRDGNTYYADSVKGRFTISRDNAKNTVYLQMNSLKPEDTAVYYCAADYFRYYPYDYWGQGTLVTVSS | low polyreactivity
19 | QVQLVESGGGLVQAGGSLRLSCAASGRIFGYYAMGWYRQAPGKERELVDSISSNGTSTYYADSVKGRFTISRDNAKNTVYLQMNSLKPEDTAVYYCAASYWYDKAYDYWGHGTQVTVSS | low polyreactivity
20 | QVQLVESGGGLVQAGGSLRLSCAASGRIFNSYAMGWYRQAPGKERELVAAITRGGSTNYADSVKGRFTISRDNAKNTVYLHMNSLKPEDTAVYYCAAVTLFHYRYDYWGQGTQVTVSS | low polyreactivity
21 | QVQLVESGGGLVQAGGSLRLSCAASGSTFYPYAMGWYRQAPGKERELVAAISRIGSRTYYADSVKGRFTISRDNAKNTVYLQMNSLKPEDTAVYYCNASYVLTGQRYGYWGQGTQVTVSS | low polyreactivity
22 | QVQLVESGGVLVQAGGSLRLSCAASGFIFYSYDMGWYRQAPGKERELDAAIRSDGSTYYADTVKGRFTISRDNAKNTVYLQMYSLKPEDTAVYDCAAKYGVRYWHYYSWTNDYWGQGTQVTVSS | low polyreactivity

Row | Sequence | polyreactivity (PSR sort gate)
23 | QVQLVESGGGLVEAGGSLRLSSAASGINFKMYAMVWSRQAPGKERELVADITYVGSTKYADSVKGRFTISRDNAKNTFYLQMNSLKPEDTAVYYFNAAQYYWYEYDYWGQGTQVTVSS | low polyreactivity
24 | QVQLVESGGGLVQAGVSLRLSCAASGFIFRTYAMGWYRQAPGKEREVVAAITGRGGTTYYADSVKGRFTISRDNAKNTVYLQMNSLKPEDTAVYYCAARGRVSVNTQRYAAYNYLGQGTQVTVSS | high polyreactivity
25 | QVQLVESGGGLVQAGGSLRLSCAASGRIFGSYAMGWYRQAPGKERELVASIRSGGRTKYADSVKGRFTISRDNAKNTVYLQMNSLKPEVTAVYYCAVPIEWDYGYWGQGTQVTVSS | low polyreactivity
26 | QVQLVESGGGLVQAGGSLRLSCAASGGIFRYYAMGWYRQAPGKERELVAAITSSGTSTYYADSVKGRFTISRDNAKNTVYLQMNSLKPEDTAVYYCAATRTKRKFDYWGQGTQVTVSS | high polyreactivity
27 | QVHLVESGGGLVQAGGSLRLSCPASGITFEHNAMGWYRQSPGKERELVAAIRWSGGSTYYADSVKGRFTISRDYAKYTVYLQMNSLKPEDTAVYYCAAYKPSTRRYDYWGQGTQVTVSS | high polyreactivity
28 | QVQLVESGGGLVQAGGSLRLCCAASGLIFRRYTMGWYRQAPGKERELVAAISWRVGRTYYADSVKGRFTISRDNAKNTVYLEMNSLKPEDTAVYYCAAILYQYDTPQVSSSRLDYWGQGTQVTVSS | high polyreactivity
29 | QVQLVESGGGLVQAGGSLRLSCAASGSIFSENTRGWYRQAPGKERELVAAISWSGGSTNYADSVKGRFTISRDNAKNTVYLQMNSLKPEDTAVYYCFYWGQCTQVTVSS | low polyreactivity
30 | QVQLVESGGGLVQAGGSLRLSCAASGFTFDDYAMGWYRQAPGKERELVAAIDDDSSTNYADSVKGRFTISRDNAKNTVYLQMNSLKPEDTAVYYCNARARVSGKWYNYWGQGTQVTVSS | high polyreactivity
31 | QVQLVESGGGLVQAGGSLRLSCADSGSIFYGYTMGWYRQAPGKERELVAAISSSGGSTYYADSVKGRFTISRDNAKNTVYLQMNSLKPEDTAVYYCAAYVPYSPDHVEFNYWGQGTQVTVSS | high polyreactivity
32 | QVQLVESGGGLVQAGGSLRLSCAASGGIFPFNGMGWYRQAPGKERELVAAISSGGRTYYADSVKGRFTISRDNAKNTVYLQMNSLKPEDTAVYYCAARTSRYYYYPYAFYWGQGTQVTVSS | high polyreactivity
33 | QVQLVESGGVLVQAGGSLRLSCAASGSTFSTNAMGWYRQAPGKEREFVAAITWSGDSTDYADSVKGRFTISRDNAKNTVYLQMNSLKPEDTAVYYCAADFPGFYYVYPGDYWGQGTQVTVSS | low polyreactivity
34 | QFQIVESGGGLVQAGGSLRLSCDASGSIFTWYAMGWYRQAPGKERELVAAITRGGSTYADSVKGRFTISRDNAKNSVYLQMNSLKPEDTAVYYCNAVYGVYDFNYWGQGTQVTVSP | low polyreactivity
35 | QVQLVESGGGLVQAGGSLRLSCPASGRIFTYYTMGWYRQAPGKERELVASITGGGGRTYYADSVKGRFTISRDNAKNTVYLQMNSLKPEDTAVYYCNDRYPYPYWYTSYDYWGQGSQVTVSS | high polyreactivity
36 | QVQLVESVGGLVLAGGSLRLSCAASGFTFPRYVMGSYRPAPGKAREFVAAITFSGGSTYYADSVKGRFTIARDNAKNTVYLQMNSLKPEDTAVYYCAAGASLWRLGLKRGYWGQGTQVTVSS | low polyreactivity
37 | QVQLVESGGGLVQAGGSLRLSCAASGGTFSTNAMGWYRQAPGNERELVAAISLSGGRTDADSVKGRFTISRDNAKNTVYLQMNSLKPEDTAVYYCNADSAGITRARSELDYWGQGTQVTVSS | low polyreactivity
38 | QVQLVESGGGLVQAGGSLRLTCAASGSTLRYYAMGWYRQAPGKERELVAAISTGGSTYYADSVKGRFTISRDNAKITVYLQINSLKPEDTAVYYCAAEKKTKTYRYDYWGQGTQVTVSS | low polyreactivity
39 | QVQLVESGGGLVQAGGSLSLSCAASGSTFVPYAMGWYRPAPGKERELVAAISSTGGSTYYADSVKGRFTISRDNAKNTVYLQMNSLKAEDTAVYYCNALAKIRYGQINKGYYWGQGTQVTVSS | high polyreactivity
40 | QVQLVESGGGLVQAGGSLRLSCAASGIIYDAYAMGWYRQAPGKERELVAAISSGGSTYYADSVKGRFTISRDNAKNTVSLQMNSLKPEDTAVYYCAAETEYPSWYDYWGQGTQVTVSS | low polyreactivity
41 | QVQLVESGGGLVQAGGSLRLSCAASGIIFDDYAMGWYRQAPGKERELVAVISSSGGNTYYADSVKGRFTISRDNAKNSVYLQMNSLKPEDTAVYYCAATYYYKSIYWFEYLGQGTQVTVSS | low polyreactivity
42 | QVQLVESGGGLVQAGGSLRLSCAASGRTFGGYDMGWYRQAPGKERELVAAISSGGRTYYADSVKGRFTISRDNAKNSVYLQMNSLKPEDTAVYYCAAKYRKWPIDYWGQGTQVTVSS | high polyreactivity
43 | QVQLQESGGGQVQAGGSLRLSCAASGSIYDDTYMGWYRQAPGKERELVATIDSGSTTNYADSVIGRITISRDNAKNTVYLQMNSLKPEDTAVYYCAAADSHIDYFDYWGQGTQVTVSS | low polyreactivity
